Experimental data reported in patent publication US20070231899A1 (published 2007).
One block for each molecule: values may come before it.

Legend:
[1] = molecular target: tissue-type plasminogen activator (t-PA) (UniProt P00750); assay: surface plasmon resonance, phospholipid-associated AIIt; AIIt with t-PA
[2] = molecular target: [Glu]-plasminogen (human) (UniProt P00747); assay: surface plasmon resonance, phospholipid-associated AIIt; AIIt with plasminogen
[3] = molecular target: plasmin (Homo sapiens (Human)) (UniProt P00747); assay: surface plasmon resonance, phospholipid-associated AIIt; AIIt with plasmin
[4] = molecular target: plasmin (Homo sapiens (Human)) (UniProt P00747); assay: surface plasmon resonance, phospholipid-associated annexin A2; phospholipid-associated annexin A2 with plasmin
[5] = molecular target: T1, Annexin II heterotetramer (AIIt) purified from bovine lung (bovine, UniProt P04272 2-339; P60902 2-97); assay: iodinated A61 (0.008-5 µM) on AIIt bound to phospholipid-coated wells, gamma counting
T1 construct: also called annexin II tetramer
T1 sequence (P04272 2-339 limits assumed, chain 1 of 2): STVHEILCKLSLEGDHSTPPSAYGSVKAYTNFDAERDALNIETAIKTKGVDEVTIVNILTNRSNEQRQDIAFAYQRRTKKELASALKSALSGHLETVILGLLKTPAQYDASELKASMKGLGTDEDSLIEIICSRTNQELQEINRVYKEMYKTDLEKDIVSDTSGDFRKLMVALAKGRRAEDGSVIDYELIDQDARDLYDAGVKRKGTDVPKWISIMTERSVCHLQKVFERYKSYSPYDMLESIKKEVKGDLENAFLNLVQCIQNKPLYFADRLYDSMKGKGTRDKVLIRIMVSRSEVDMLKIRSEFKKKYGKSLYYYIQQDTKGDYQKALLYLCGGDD
T1 sequence (P60902 2-97 limits assumed, chain 2 of 2): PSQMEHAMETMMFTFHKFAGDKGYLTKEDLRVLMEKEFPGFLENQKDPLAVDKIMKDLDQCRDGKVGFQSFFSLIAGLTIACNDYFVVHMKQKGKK
Source text: Binding of A₆₁ to AIIt—The purified A₆₁ was iodinated according to manufacturer's procedures. Iodinated A₆₁ retained biological activity as determined by the endothelial cell proliferation assay (Kassam et al., 2001). 96-well Immulon-1 Removawell strips (Dynex Technologies) were coated with phospholipid mixture containing 3:1 ratio of phosphatidylserine to phosphatidylcholine and air-dried. The coated strips were blocked with 1% fatty acid-free bovine serum albumin (BSA) in a buffer containing 20 mM Hepes (pH 7.4), 140 mM NaCl, and 2 mM CaCl₂ (buffer A) at room temperature for 2 h. The strips were washed with buffer A and incubated with 1 μM AIIt in buffer A at room temperature for 4 h. The strips were then washed and incubated with 0.008-5 μM iodinated A₆₁ with or without 30-fold molar excess of cold A₆₁ or BSA at 4° C. After overnight incubation, the strips were washed five times with PBS, and individual wells were detached and measured for radioactivity with a γ-counter. The data shown (n=6) are the average of two separate experiments.

Sequence of [Glu]-plasminogen (human) (P00747 20-810 limits assumed): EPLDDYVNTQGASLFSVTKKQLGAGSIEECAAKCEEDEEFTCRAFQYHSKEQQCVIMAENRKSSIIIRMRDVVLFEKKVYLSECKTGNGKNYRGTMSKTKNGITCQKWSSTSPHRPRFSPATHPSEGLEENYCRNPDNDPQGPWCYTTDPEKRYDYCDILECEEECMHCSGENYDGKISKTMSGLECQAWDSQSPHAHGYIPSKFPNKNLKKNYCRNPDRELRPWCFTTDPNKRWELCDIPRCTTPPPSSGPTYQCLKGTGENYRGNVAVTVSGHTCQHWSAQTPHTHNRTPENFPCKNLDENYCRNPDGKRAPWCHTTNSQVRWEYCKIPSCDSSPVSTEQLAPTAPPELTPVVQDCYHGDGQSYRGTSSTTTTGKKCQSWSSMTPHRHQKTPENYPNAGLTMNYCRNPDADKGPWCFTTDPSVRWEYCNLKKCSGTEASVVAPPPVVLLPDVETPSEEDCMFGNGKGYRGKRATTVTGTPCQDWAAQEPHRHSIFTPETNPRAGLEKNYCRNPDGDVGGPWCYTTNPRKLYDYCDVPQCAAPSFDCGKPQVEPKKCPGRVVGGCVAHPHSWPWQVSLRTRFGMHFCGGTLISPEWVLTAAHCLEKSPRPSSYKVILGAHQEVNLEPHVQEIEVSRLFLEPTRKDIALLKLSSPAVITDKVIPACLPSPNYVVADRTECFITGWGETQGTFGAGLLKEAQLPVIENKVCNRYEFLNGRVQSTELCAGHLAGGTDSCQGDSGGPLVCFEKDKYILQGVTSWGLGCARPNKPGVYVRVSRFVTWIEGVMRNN
Sequence of tissue-type plasminogen activator (t-PA) (P00750 36-562 limits assumed): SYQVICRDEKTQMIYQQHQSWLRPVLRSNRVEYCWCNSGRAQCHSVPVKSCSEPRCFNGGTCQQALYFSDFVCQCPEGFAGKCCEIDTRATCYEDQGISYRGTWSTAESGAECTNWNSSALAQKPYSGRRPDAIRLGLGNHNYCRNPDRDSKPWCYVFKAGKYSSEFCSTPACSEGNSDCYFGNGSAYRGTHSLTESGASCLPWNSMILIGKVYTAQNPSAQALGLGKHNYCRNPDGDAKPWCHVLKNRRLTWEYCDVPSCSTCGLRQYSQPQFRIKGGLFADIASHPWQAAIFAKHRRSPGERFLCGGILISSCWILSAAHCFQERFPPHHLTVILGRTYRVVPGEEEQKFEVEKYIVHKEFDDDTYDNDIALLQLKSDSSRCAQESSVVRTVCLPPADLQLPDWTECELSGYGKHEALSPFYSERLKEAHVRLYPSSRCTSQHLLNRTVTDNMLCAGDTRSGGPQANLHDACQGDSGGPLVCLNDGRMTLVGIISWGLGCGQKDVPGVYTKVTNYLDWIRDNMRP

Kd [1]: 680 nM | Kd [2]: 110 nM | Kd [3]: 750 nM
Molecule: Annexin II heterotetramer (AIIt), phospholipid-associated, as used in the surface plasmon resonance study of Example 12 (from UniProt P07355 2-339)

Kd [4]: 780 nM
Molecule: Annexin A2 (p36), phospholipid-associated (from UniProt P07355 2-339)

Kd [5]: 1000 nM
B1: A61 antiangiogenic plasminogen fragment (Lys78-Lys468 of plasminogen) (other)
chain: KVYLSECKTGNGKNYRGTMSKTKNGITCQKWSSTSPHRPRFSPATHPSEGLEENYCRNPDNDPQGPWCYTTDPEKRYDYCDILECEEECMHCSGENYDGKISKTMSGLECQAWDSQSPHAHGYIPSKFPNKNLKKNYCRNPDRELRPWCFTTDPNKRWELCDIPRCTTPPPSSGPTYQCLKGTGENYRGNVAVTVSGHTCQHWSAQTPHTHNRTPENFPCKNLDENYCRNPDGKRAPWCHTTNSQVRWEYCKIPSCDSSPVSTEQLAPTAPPELTPVVQDCYHGDGQSYRGTSSTTTTGKKCQSWSSMTPHRHQKTPENYPNAGLTMNYCRNPDADKGPWCFTTDPSVRWEYCNLKKCSGTEASVVAPPPVVLLPDVETPSEEDCMFGNGK
modifications: radioiodinated (iodinated with Iodobeads) in the binding assay
notes: also called AAPF; anti-angiogenesis plasmin fragment
